Target: MpATG8A (M. polymorpha)
Experiment: ITC

Sequence of MpATG8A (M. polymorpha) (chain, as listed by the source): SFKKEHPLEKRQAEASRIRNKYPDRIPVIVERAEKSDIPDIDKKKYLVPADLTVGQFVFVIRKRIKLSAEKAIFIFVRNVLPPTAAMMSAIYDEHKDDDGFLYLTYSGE

B1: canonical AIM peptide (AIM wt) (peptide)
chain: DWEIV
**Q.** How did the Kd turn out when B1 was run?
**A.** 55.6 nM
